In patent US20190248902A1 (published 2019):
Positions count from the first letter of the chain named.

T1: human ASGR-1 mutant construct H203 (human, UniProt P07306 1-291)
T1 construct: Arg/Glu scanning: non-arginine residues were changed to arginine; Transiently expressed on CHO-S cells
T1 sequence: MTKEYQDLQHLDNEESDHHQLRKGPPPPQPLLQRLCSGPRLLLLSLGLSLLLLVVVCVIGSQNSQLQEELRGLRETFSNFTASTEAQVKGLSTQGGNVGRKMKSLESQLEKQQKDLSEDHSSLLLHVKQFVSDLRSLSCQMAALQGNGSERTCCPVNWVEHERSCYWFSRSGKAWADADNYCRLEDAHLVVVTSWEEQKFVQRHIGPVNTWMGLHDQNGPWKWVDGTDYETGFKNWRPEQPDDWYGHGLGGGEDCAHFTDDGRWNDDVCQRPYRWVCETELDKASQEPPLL

T2: human ASGR-1 (wild type) (human, UniProt P07306 1-291)
T2 construct: also called wt ASGR1; huASGR-1
T2 sequence: T1 sequence with R203H

B1: 52H2 (antibody, V domains shown)
VH: EVQLLESGGGLVQPGGSLRLSCAASGFTFSRNAMSWVRQAPGMGLEWVSAISGRGGNTFYADSVKGRFTVSRDNSKNTLFLQMNSLRAEDTAVYYCAKNGREQWLDYWGQGTLVTVSS
VL: DIQMTQSPSSVSASVGDRVTITCRASQNITNWLAWFQQKPGRAPKLLIYTTSSLQSGVPSRFSGSGSGTDFTLTISSLQPEDFATYCCQQTNSFPWTFGHGTKVEVK
notes: mAb
B2: 50G9 (antibody, V domains shown)
VH: QVQLVESGGGVVQPGRSLRLSCAASGFIFSSYGMHWVRQAPGKGLEWVAVISQDGIIRYYADSVKGRFTISRDNSKNTLYLQMNSLRAEDTAVYYCARDVKQWLVRTYGMDVWGQGTTVTVSS
VL: SYELTQPPSVSVSPGQTASITCSGDKLGDKYACWYQQKPGQSPVLVIYQDSKRPSGIPERFSGSNSGNTATLTISGTQARDEAEYYCQARNSRRGVFGGGTRLTVL
notes: mAb
B3: 60E8 (antibody, V domains shown)
VH: QVQLQESGPGLVRPSATLSLTCTVSGGSISRSSYYWGWIRQPPGKGLEWIGSIYYSGSASYNPSLKSRVTISVDTSENQFSLRLSSVTAADTAVYYCARLDSGWSFDYWGQGTLVTVSS
VL: DIQMTQSPSSLSASVGDRVTFTCRASQGIRNDLGWFQQKPGKAPKRLIYAASSLQSGVPSRFSGSGSGTEFTLTISSLQPEDFATYYCLQHSSYPLTFGGGTKVEIK
notes: mAb
B4: 4B3 (antibody, V domains shown)
VH: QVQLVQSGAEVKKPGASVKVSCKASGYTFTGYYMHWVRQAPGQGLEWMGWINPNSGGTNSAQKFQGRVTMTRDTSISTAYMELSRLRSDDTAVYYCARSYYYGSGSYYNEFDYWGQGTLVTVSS
VL: SYELTQPPSVSVSPRQTVSITCSGDKLGDKYACWYQQKPGQSPVLVIYQDRKRPSGIPERFSGSNSGNTATLTISGTQAMDEADYYCQAWDNNTVIFGGGTKLTVL
notes: mAb
B5: 151B9 (antibody, V domains shown)
VH: EVQLLESGGGLVQPGGSLRLSCAASGFTFSSYAMSWVRQAPGKGLEWVSVISGGGSSTYYADSVKGRFTISRDNSKNTLYLQMNSLRAEDTAVYYCAKWRGNPTDYGMDVWGQGTTVTVSS
VL: B4 VL with R15G, V18A, T21A, K26N, C33S, R51S, T77I, N92S, N93S, I96V
notes: mAb
B6: 60D2 (antibody, V domains shown)
VH: EVQLVESGGGLVQPGGSLRLSCGASGFTFSSYSMNWVRQAPGKGLEWVSYISESSNIIYYTDSVKGRFTISRDNAMNSLYLQMNSLRDEDTAVYYCARADTPMVLYFYGMDVWGQGTTVTVSS
VL: B4 VL with R15G, V18A, D25N, C33S, K38R, R51N, A79T, I96V
notes: mAb
B7: 59F2 (antibody, V domains shown)
VH: B6 VH with E53G, M76K
VL: B4 VL with R15G, V18A, C33S, K38R, R51N, I96V
notes: mAb
B8: 65E9 (antibody, V domains shown)
VH: not shown
VL: B4 VL with R15G, V18A, D29N, A32D, C33Y, N93S, I96V
notes: mAb
B9: 32D6 (antibody, V domains shown)
VH: QVQLVESGGGVVQPGRSLRLSCAASGFTFSSYGMHWVRQAPGKGLEWVTVIWHDGSNAYYADSVKGRFTISRDNSKNTLYLQMNSLRAEDTAVYYCARENSSSYYFDYWGQGTLVTVSS
VL: DIQMTQSPSSLSTSVGDRVTITCRASQNIISYLNWYQQKPGKAPKLLMYVASRLQSGVPSRFSGSGSGTDFTLTISSLQAEDFATYYCQQSYSTPYTFGGGTKVAIK
notes: mAb
B10: 72F5 (antibody, V domains shown)
VH: EVQLLESGGGLVQPGGSLRLSCAASGFTFSSYAMIWVRQAPGKGLEWVSTISGSGGYTYSADSVKGRFTISRDNSKNTLYLQMNSLRAEDTAVYYCARRIAVTGTEWYDPWGQGTLVTVSS
VL: DIQMTQSPSSLSASVGDRVIIPCRASQNISSYLNWYQQKPGKAPKLLIYAASSLQSGVPSRFSGSGSGTDFTLTISSLQPEDFATYSCQQTYSTPTFGQGTRLDIN
notes: mAb
B11: 149D11 (antibody, V domains shown)
VH: EVQLLESGGGLVQPGGSLRLSCAASGFTFSSYAMSWVRQAPGKGLEWVSAISGRGGNTFYADSVKGRFTISRDNSKNTLYRQMNSLRAEDTAVYYCAKKDYDYVWGSPYFDYWGQGTLVTVSS
VL: DIQMTQSPASVSASVGDRVTITCRASQNISNWLTWYQQKPGKAPKLLIYAASSLQSGVPSRFSGSGSGTDFTLSISSLQPEDFATYYCQQTDSFPFTFGPGTKVDVK
notes: mAb

Target: T1, human ASGR-1 mutant construct H203
Test: FACS ratio: 65C12 geomean / this mAb geomean
Procedure: (§1) Mutant hASGR-1 variants were constructed such that non-arginine residues were changed to arginine and where wild type arginine residues were mutated to glutamic acid. Each mutant hASGR-1 sequence was then cloned into a mammalian expression vector and used to transiently transfect CHOs cells. The ability of human ASGR-1-specific, ligand competing antibodies to bind to the mutant hASGR-1 proteins was assessed by FACS as described above.
(§2) Antibodies were tested for binding to the individual mutant and wild type ASGR-1 constructs using normalized antibody concentrations (5 ug/ml). CHO—S cells transiently expressing the appropriate mutated or non-mutated antigen of interest were mixed with antibody sample or controls, incubated for 1 hour at 4° C., and then washed twice. Cells with bound antibody were then incubated with Alexa Fluor® 647 IgG Fc fragment-specific detection antibody and 7-AAD viability stain for 15 minutes at 4° C., washed once and resuspended in FACS buffer. Samples were analyzed using a BD Accuri™ Flow Cytometer and an Intellicyt HyperCyt Autosampler. As a negative control, supernatants and controls were also screened against CHO—S cells transfected with empty parental vector (referred to as mock). […] Because mutant hASGR-1 expression levels varied relative to each other, sample binding data for each construct was normalized for expression by dividing the binding data from an antibody not affected by the mutations (e.g., 65C12) by the binding values of each test antibody on a given mutant construct. Also, because the antibody binding affinities varied amongst the samples, the expression corrected data (above) was further normalized by comparing test antibody binding on each mutant construct to wild type hASGR-1. Identification of specific mutations that affected test antibody binding was performed by an interquartile range (IQR) analysis to determine statistical outliers. A mutation was identified as a “hit” if the calculated values were >3× the IQR (above the 3rd quartile/upper fence) for a given mutant construct.

Expression Normalization to mAb 65C12	Binder
1.38	B1
17.1	B2
17	B3
15.2	B4
2.65	B5
18.8	B6
19.1	B7
17.5	B8
1.91	B9
2.45	B10
2.91	B11

Target: T2, human ASGR-1 (wild type)
Test: FACS ratio: 65C12 geomean / this mAb geomean
Procedure: as §1, §2

Expression Normalization to mAb 65C12	Binder
1.17	B1
1.5	B2
1.45	B3
1.58	B4
2.38	B5
1.89	B6
2.01	B7
1.89	B8
1.55	B9
2	B10
2.38	B11

Target: T1, human ASGR-1 mutant construct H203
Test: FACS ratio: H203 normalized value / wt normalized value
Procedure: (§3) The ability of human ASGR-1-specific, ligand competing antibodies to bind to the mutant hASGR-1 proteins was assessed by FACS as described above.
(§4) Antibodies were tested for binding to the individual mutant and wild type ASGR-1 constructs using normalized antibody concentrations (5 ug/ml). CHO—S cells transiently expressing the appropriate mutated or non-mutated antigen of interest were mixed with antibody sample or controls, incubated for 1 hour at 4° C., and then washed twice. Cells with bound antibody were then incubated with Alexa Fluor® 647 IgG Fc fragment-specific detection antibody and 7-AAD viability stain for 15 minutes at 4° C., washed once and resuspended in FACS buffer. Samples were analyzed using a BD Accuri™ Flow Cytometer and an Intellicyt HyperCyt Autosampler. As a negative control, supernatants and controls were also screened against CHO—S cells transfected with empty parental vector (referred to as mock). […] Because mutant hASGR-1 expression levels varied relative to each other, sample binding data for each construct was normalized for expression by dividing the binding data from an antibody not affected by the mutations (e.g., 65C12) by the binding values of each test antibody on a given mutant construct. Also, because the antibody binding affinities varied amongst the samples, the expression corrected data (above) was further normalized by comparing test antibody binding on each mutant construct to wild type hASGR-1. Identification of specific mutations that affected test antibody binding was performed by an interquartile range (IQR) analysis to determine statistical outliers. A mutation was identified as a “hit” if the calculated values were >3× the IQR (above the 3rd quartile/upper fence) for a given mutant construct. Although IQR analysis was used here to determine signifance and identify hits, one skilled in the art will recognize that a number of methods could be employed in order to normalize the data (eg. using epitope-tagged constructs or other ASGR-1-binding antibodies directed against non-CBD epitopes).

Normalization to wt ASGR1 Binding	Binder
1.18	B1
11.4	B2
11.7	B3
9.63	B4
1.11	B5
9.95	B6
9.53	B7
9.25	B8
1.23	B9
1.22	B10
1.22	B11

Target: T1, human ASGR-1 mutant construct H203
Test: FACS, transfected CHO-S cells, mAb 5 ug/ml
Procedure: as §3, §4

FACS Binding Geomean	Binder
18600	B1
1510	B2
1520	B3
1700	B4
9740	B5
1370	B6
1350	B7
1470	B8
13500	B9
10500	B10
8870	B11

Target: T2, human ASGR-1 (wild type)
Test: FACS, transfected CHO-S cells, mAb 5 ug/ml
Procedure: as §3, §4

FACS Binding Geomean	Binder
48000	B1
37300	B2
38700	B3
35600	B4
23500	B5
29600	B6
27900	B7
29600	B8
36100	B9
28000	B10
23600	B11
